The record followed here is publication PMC7714896 (Signal Transduction and Targeted Therapy, 2020).

The test concerns the target T1, receptor-binding domain (RBD) of SARS-CoV-2 spike protein (SARS-CoV-2, UniProt P0DTC2).
T1 construct: source: bought: GenScript
The experiment in a line: SPR; BIAcore 3000; […], flow 15 μl/min, […]. The conditions noted are these: both partners purified.

B1: recombinant human CD147 extracellular fragment (His-CD147) (domain or fragment)
chain: EPGTVFTTVEDLGSKILLTCSLNDSATEVTGHRWLKGGVVLKEDALPGQKTEFKVDSDDQWGEYSCVFLPEPMGTANIQLHGPPRVKAVKSSEHINEGETAMLVCKSESVPPVTDWAWYKITDSEDKALMNGSESRFFVSSSQGRSELHIENLNMEADPGQYRCNGTSSKGSDQAIITLRVRSHLAAL
B1: the Kd (in general, the equilibrium constant for the complex coming apart) stood at 185 nM. That is a sub-micromolar value.
